Source: patent US20050049403A1 (CAMBRIDGE ANTIBODY TECHNOLOGY, published 2005)

Assays:
recombinant human TGFβ2 [1] = target: T1, recombinant human TGFβ2 (human, UniProt P61812 303-414); assay: cell-based or functional assay
T1 sequence (looked up): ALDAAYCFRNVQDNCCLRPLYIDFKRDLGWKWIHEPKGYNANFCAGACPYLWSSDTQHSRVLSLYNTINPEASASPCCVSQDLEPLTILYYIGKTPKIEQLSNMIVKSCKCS

recombinant human TGFβ1 [2] = target: T2, recombinant human TGFβ1 (human, UniProt P01137 279-390); assay: BIACore, antigen coated on the sensor chip
T2 construct: mature; also called TGFbeta1
T2 sequence (P01137 279-390 limits assumed): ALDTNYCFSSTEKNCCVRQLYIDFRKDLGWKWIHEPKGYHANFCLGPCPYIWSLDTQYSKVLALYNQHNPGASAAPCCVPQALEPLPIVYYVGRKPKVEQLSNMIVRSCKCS

TGFβ3 [3] = target: T3, TGFβ3 (UniProt P10600 301-412); assay: BIACore, antigen coated on the sensor chip
T3 construct: mature; also called TGFbeta3
T3 sequence (looked up): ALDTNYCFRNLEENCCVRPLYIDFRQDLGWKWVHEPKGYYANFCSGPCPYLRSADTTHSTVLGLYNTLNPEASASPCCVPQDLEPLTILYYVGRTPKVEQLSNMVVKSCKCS

recombinant human TGFβ2 [4] = target: T1, recombinant human TGFβ2; assay: radioreceptor assay, inhibition of 125I-TGFβ2 binding to A549 cells; concentration of antibody combining sites
Procedure: (§1) Cells are seeded at 1-2×10^5 cells/ml/well into the wells of 24-well cluster plates and grown for 24 h in serum-free DMEM. Cell monlayers are washed twice with serum-free DMEM and 0.5 ml binding medium (DMEM/Hams F12 (Sigma D-6421) containing 0.1% (v/v) BSA added to each well.
(§2) Aliqouts of ¹²⁵I-TGFβ1 or TGFβ2 (70-90 TBq/mmol; Amersham International) at 20 pM are preincubated with antibody in binding medium at room temperature for 1 h. Duplicate samples of 0.5 ml of TGFβ/antibody mixtures are then added to the cell monlayers and are incubated at 37° C. for 1-2 h. Control wells contain TGFβ only. Unbound TGFβ is removed by washing 4 times with Hank's balanced salt solution containing 0.1% BSA. Cells are solubilised in 0.8 ml 25 mM Tris HCl pH 7.5, 10% glycerol, 1% Triton X-100 at room temperature for 20 min. The contents of each well are removed and ¹²⁵I measured in a gamma counter.

recombinant human TGFβ2 [5] = target: T1, recombinant human TGFβ2; assay: BIACore, method of Karlsson et al.
recombinant human TGFβ2 [6] = target: T1, recombinant human TGFβ2; assay: cell-based or functional assay; remark: listed apart in the source
TGFβ3 [7] = target: T3, TGFβ3; assay: cell-based or functional assay
[8] = target: oxazolone-bovine serum albumin (bovine, UniProt P02769 25-607, oxazolone hapten coupled, sites not stated); assay: ELISA, antigen coated at 10 µg/ml, anti-human Fc alkaline phosphatase conjugate, OD405 nm [b]
oxazolone-bovine serum albumin, sequence (P02769 25-607 limits assumed): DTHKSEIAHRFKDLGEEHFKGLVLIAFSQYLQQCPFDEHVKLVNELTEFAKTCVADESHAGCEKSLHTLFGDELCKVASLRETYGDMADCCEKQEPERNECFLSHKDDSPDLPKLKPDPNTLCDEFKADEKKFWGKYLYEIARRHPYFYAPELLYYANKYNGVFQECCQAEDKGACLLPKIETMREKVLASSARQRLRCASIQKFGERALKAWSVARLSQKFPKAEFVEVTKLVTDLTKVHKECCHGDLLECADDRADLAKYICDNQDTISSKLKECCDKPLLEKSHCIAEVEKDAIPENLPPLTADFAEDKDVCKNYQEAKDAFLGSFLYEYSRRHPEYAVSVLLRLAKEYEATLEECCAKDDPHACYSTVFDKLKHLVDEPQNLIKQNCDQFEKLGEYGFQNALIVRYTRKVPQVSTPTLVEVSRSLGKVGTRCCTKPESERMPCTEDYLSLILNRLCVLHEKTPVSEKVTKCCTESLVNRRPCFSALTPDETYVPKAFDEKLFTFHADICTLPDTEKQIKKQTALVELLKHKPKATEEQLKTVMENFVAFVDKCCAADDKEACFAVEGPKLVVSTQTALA
Procedure: (§3) For both FIG. 13(a) and FIG. 13(b), antigens 1 to 15 were used for coating the plate at a concentration of 10 μg/ml in PBS. The TGFbetas were coated at 0.2 μg/ml in PBS. Coating was performed at 4° C. overnight. […] of each antigen was used per well and duplicates of each antigen for each IgG to be tested. IgG samples were incubated with the coated antigens at 37° C. for 2 hours after blocking with 2%. marvel-PBS. The labelled second antibody was a mouse anti-human Fc1 alkaline phosphatase conjugated and the substrate used to detect bound second antibody was PNPP at 1 mg/ml with the absorbance read at 405 nm.

[9] = target: T4, chicken egg white trypsin inhibitor (chicken, UniProt P01005 25-210); assay: as above
T4 sequence (looked up): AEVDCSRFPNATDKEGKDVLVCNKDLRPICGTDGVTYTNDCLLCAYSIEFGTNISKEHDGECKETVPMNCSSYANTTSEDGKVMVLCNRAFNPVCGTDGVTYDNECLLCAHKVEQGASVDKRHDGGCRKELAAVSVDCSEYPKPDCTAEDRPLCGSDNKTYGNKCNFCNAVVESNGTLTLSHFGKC
Procedure: as §3

human lymphotoxin (TNFβ) = target: T5, human lymphotoxin (TNFβ) (human, UniProt P01374 35-205, limits assumed); assay: as above
T5 sequence (looked up): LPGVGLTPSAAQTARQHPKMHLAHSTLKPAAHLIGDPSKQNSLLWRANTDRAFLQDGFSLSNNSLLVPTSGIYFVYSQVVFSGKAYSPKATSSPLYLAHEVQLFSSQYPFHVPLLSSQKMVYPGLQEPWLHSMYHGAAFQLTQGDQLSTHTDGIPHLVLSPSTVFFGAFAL
Procedure: as §3

human serum albumin = human serum albumin (human, UniProt P02768 25-609); assay: as above
human serum albumin, sequence (P02768 25-609 limits assumed): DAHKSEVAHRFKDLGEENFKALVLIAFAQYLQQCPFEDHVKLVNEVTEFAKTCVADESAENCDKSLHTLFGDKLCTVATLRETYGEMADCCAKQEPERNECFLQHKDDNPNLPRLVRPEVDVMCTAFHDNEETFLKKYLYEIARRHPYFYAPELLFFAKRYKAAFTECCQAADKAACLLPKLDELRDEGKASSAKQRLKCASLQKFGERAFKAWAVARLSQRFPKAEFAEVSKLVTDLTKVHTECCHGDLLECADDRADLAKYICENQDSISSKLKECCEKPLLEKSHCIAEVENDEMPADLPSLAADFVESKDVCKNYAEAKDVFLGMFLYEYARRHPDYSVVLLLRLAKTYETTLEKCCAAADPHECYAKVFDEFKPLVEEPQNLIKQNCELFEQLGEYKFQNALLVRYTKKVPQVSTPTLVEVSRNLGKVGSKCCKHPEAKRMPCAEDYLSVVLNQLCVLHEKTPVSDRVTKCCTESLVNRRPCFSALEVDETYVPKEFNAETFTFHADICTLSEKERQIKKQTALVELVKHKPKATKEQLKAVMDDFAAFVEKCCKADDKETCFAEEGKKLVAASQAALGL
Procedure: as §3

hen egg lysozyme = hen egg lysozyme (hen, UniProt P00698 19-147); assay: as above
hen egg lysozyme, sequence (P00698 19-147): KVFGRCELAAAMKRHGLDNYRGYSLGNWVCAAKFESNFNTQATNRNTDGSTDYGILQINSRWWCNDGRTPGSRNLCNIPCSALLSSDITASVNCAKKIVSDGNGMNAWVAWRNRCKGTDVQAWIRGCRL
Procedure: as §3

human insulin = human insulin (human, UniProt P01308 25-54; P01308 90-110, limits assumed); assay: as above
human insulin, sequence (P01308 25-54 limits assumed, chain 1 of 2): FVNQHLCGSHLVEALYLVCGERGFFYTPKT
human insulin, sequence (P01308 90-110 limits assumed, chain 2 of 2): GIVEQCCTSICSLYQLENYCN
Procedure: as §3

bovine serum albumin = target: T6, bovine serum albumin (bovine, UniProt P02769 25-607); assay: as above
T6 construct: also called BSA
T6 sequence (P02769 25-607 limits assumed): as the sequence (P02769 25-607 limits assumed) above
Procedure: as §3

ovalbumin = target: T7, ovalbumin (UniProt P01012 2-386); assay: as above
T7 sequence (looked up): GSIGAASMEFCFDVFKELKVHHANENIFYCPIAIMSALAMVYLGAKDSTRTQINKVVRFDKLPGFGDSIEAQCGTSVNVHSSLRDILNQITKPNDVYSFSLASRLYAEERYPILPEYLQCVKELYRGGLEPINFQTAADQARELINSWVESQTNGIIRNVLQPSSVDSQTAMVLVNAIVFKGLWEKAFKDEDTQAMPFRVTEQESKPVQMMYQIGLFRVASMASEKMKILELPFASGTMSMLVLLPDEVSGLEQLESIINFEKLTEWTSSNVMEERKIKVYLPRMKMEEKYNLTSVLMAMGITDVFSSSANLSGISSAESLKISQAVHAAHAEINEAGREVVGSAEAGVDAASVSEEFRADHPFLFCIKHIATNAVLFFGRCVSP
Procedure: as §3

recombinant human TGFβ1 [10] = target: T2, recombinant human TGFβ1; assay: specificity ELISA, TGFβ coated at 0.2 µg/ml
Procedure: Clones identified as binding TGFβ-1 rather an uncoated well, as described above, were further analysed for fine specificity. […] Microtitre plate wells were coated with 50 μl of either 0.2 μg/ml TGFβ1, 0.2 μg/ml TGFβ-2, 10 μg/ml bovine serum albumin (BSA) or PBS (the uncoated well). After preblocking both the phage (or soluble scFv) and the microtitre plates, 50 μl blocked phage (or soluble scFv) from each clone was added to a well coated with either TGFβ-1, TGFβ-2, BSA or an uncoated well. As above, alkaline phosphatse activity was visualised using either the chromagenic substrate pNPP (Sigma) or the Ampak system (Dako). […]

[11] = target: lysozyme (coated onto a BIACore sensor chip) (Gallus gallus (Chicken), UniProt P00698 19-147); assay: BIACore, lysozyme coated on the sensor chip
lysozyme (coated onto a BIACore sensor chip), sequence (P00698 19-147 limits assumed): as the sequence (P00698 19-147) above

recombinant human TGFβ1 [12] = target: T2, recombinant human TGFβ1; assay: radioreceptor assay, inhibition of 125I-TGFβ1 binding to A549 cells; concentration of antibody combining sites
Procedure: as §1, §2

recombinant human TGFβ1 [13] = target: T2, recombinant human TGFβ1; assay: BIACore, method of Karlsson et al.
recombinant human TGFβ2 [14] = target: T1, recombinant human TGFβ2; assay: BIACore, antigen on the chip

B1: 6H1 IgG4 (antibody, V domains shown)
VH: EVQLVESGGGVVQPGRSLRLSCAASGFTFSSYGMHWVRQAPGKGLEWVAVIWYDGSNKYYADSVKGRFTISRDNSKNTLYLQMDSLRAEDTAVYYCGRTLESSLWGQGTLVTVSS
VL: DVVMTQSPSSLSASVGDRVTITCRASQGISNYLAWYQQKPGKAPKLLIYKASTLESGVPSRFSGSGSGTEFTLTISSLQPEDFATYYCQQSYSTPRTFGQGTKVDIKR
notes: Whole antibody: human gamma 4 and human kappa constant regions (pG4D100, pKN100), CHO cells
- I.C.50 in TF1 assay (neutralisation of TGFβ2 inhibition of TF1 cell proliferation) (recombinant human TGFβ2 [1]): 100 nM
- binding result (recombinant human TGFβ1 [2]): no binding
- binding result (TGFβ3 [3]): no binding
- IC50 (recombinant human TGFβ2 [4]): ~10 nM
- Kd (recombinant human TGFβ2 [5]): ~2 nM
- IC50 in TF1 cell proliferation assay, 100 pM TGFβ isoform (recombinant human TGFβ2 [6]): 12 nM
- IC50 in TF1 neutralisation assay, 6H1 IgG4 from a CHO cell line (recombinant human TGFβ2 [6]): 15 nM
- IC50 in TF1 cell proliferation assay, 100 pM TGFβ isoform (TGFβ3 [7]): ~20 nM

B2: 6A5 IgG4 (antibody, V domains shown)
VH: EVQLVESGGGVVQPGRSLRLSCAASGFTFSSYGMHWVRQAPGKGLEWVAVIWYDGSNKYYADSVKGRFTISRDNSKNTLYLQMDSLRAEDTAVYYCGRTLESSLWGQGTLVTVSS
VL: SSELTQDPAVSVALGQTVRITCQGDSLRSYYASWYQQKPGQAPVLVIYGKNNRPSGIPDRFAGSNSGNTASLTITGAQAEDEADYYCSSRDSSGNHVVFGGGTKLTVLG
notes: Whole antibody: human gamma 4 and human lambda constant regions (pG4D100, pLN10), CHO cells
- I.C.50 in TF1 assay (neutralisation of TGFβ2 inhibition of TF1 cell proliferation) (recombinant human TGFβ2 [1]): 150 nM
- IC50 (recombinant human TGFβ2 [4]): ~6 nM
- binding result [8]: no binding
- binding result [9]: no binding
- binding result (human lymphotoxin (TNFβ)): no binding
- binding result (human serum albumin): no binding
- binding result (hen egg lysozyme): no binding
- binding result (human insulin): no binding
- binding result (bovine serum albumin): no binding
- binding result (ovalbumin): no binding

B3: 10A6 scFv (scFv)
scFv: QVQLVESGGGVVQPGRSLRLSCAASGFTFSSYGMHWVRQAPGKGLEWVAVISYDGSNKYYADSVKGRFTISRDNSKNTLYLQMNSLRAEDTAVYYCAKTGEYSGYDSSGVDVWGKGTTVTVSSGGGGSGGGGSGGGGSHVILTQDPAVSVALGQTVRITCQGDSLKSYYASWYQQKPGQAPVLVIYGENSRPSGIPDRFSGSSSGNTASLTITGAQAEDEADYYCNSRDSSGTHLEVFGGGTKLTVLG
notes: Light chain shuffle of 1-B2
- ELISA signal, fold over the signal on TGFβ2 and TGFβ3 (recombinant human TGFβ1 [10]): ≥ 5 fold

B4: 27C1/10A6 IgG4 (antibody, V domains shown)
VH: QVQLVESGGGVVQPGRSLRLSCAASGLTFSSYDMHWVRQPPAKGLEWVAVISYDGSSKYYADSVKGRFTISRDNSKNTLYLQMNSLRAEDTAVYYCARTGEYSGYDTSGVELWGQGTTVTVSS
VL: HVILTQDPAVSVALGQTVRITCQGDSLKSYYASWYQQKPGQAPVLVIYGENSRPSGIPDRFSGSSSGNTASLTITGAQAEDEADYYCNSRDSSGTHLEVFGGGTKLTVLG
notes: Whole antibody: human gamma 4 constant region (pG4D100) and human lambda constant region (pLN10), made in CHO cells
- binding result [11]: no binding
- IC50 (recombinant human TGFβ1 [12]): 9 nM
- Kd (recombinant human TGFβ1 [13]): ~5 nM
- fold higher dissociation constant compared to TGFβ1 (recombinant human TGFβ2 [14]): ≥ 10 fold
